Assay results from patent US20120058906A1 (published 2012).
Values belong to the binder of their own block, whether it stands above or below them.

Experiments:
[1] = biological target: T1, rHuman HGF R/c-MET/Fc Chimera, CF (R&D Systems Cat#358-MT/CF) (human, UniProt P08581 25-932); test: MSD ECL multi-spot assay, antigen spotted on plate, Fab 0.36 uM; blank spot 1948
T1 construct: Bought protein; also called HGF R/Fc; hepatocyte growth factor receptor; Fc part of the bought chimera not given

[2] = biological target: T2, rHuman IGF-1 sR (IGF-1 sR), CF (R&D Systems Cat#391-GR) (human, UniProt P08069 31-932); test: as above
T2 construct: Bought soluble receptor; also called insulin-like growth factor-1 soluble receptor; IGF-R1

[3] = biological target: T3, rHuman CD44/Fc Chimera, CF (R&D Systems Cat#3660-CD) (human, UniProt P16070 21-220); test: as above
T3 construct: Bought protein; Fc part of the bought chimera not given

[4] = biological target: T4, rHuman P-Cadherin/Fc Chimera, CF (R&D Systems Cat#861-PC) (human, UniProt P22223 108-654); test: as above
T4 construct: Bought protein; also called CDH3; Fc part of the bought chimera not given

[5] = biological target: T5, rHuman Erythropoietin R/Fc Chimera, CF (R&D Systems Cat#963-ER) (human, UniProt P19235 25-250); test: as above
T5 construct: Bought protein; also called EPOR; EPO R/Fc; Fc part of the bought chimera not given
T5 sequence: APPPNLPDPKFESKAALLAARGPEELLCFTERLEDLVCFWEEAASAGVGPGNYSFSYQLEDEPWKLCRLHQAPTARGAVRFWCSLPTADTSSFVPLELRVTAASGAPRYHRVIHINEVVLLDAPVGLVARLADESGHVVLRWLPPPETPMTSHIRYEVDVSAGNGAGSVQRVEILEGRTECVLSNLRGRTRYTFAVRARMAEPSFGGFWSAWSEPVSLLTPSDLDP

[6] = biological target: T6, rHuman ErbB2/Fc Chimera, CF (R&D Systems Cat#1129-ER) (human, UniProt P04626 23-652); test: as above
T6 construct: Bought protein; also called HER2/neu; human epidermal growth factor 2 receptor; Fc part of the bought chimera not given

[7] = biological target: T7, rHuman Erythropoietin R/Fc Chimera, CF (R&D Systems Cat#963-ER) (human, UniProt P19235 25-250); test: ECL (MSD Multi-Spot) binding, antigen spotted on plate, Fab at 500 nM; blank spot 680;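 note: blank spot per well as comparator with Hit at signal to blank ratio of 4 or more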
T7 construct: Bought Fc chimera; also called EPO R/Fc; Epo R; Fc part of the bought chimera not given
T7 sequence: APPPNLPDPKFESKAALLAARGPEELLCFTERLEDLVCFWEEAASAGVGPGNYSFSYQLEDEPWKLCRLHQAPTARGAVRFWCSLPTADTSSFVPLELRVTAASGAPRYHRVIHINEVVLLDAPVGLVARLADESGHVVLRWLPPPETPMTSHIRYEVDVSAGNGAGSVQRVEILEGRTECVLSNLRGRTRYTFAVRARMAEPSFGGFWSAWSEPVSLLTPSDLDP

[8] = biological target: T8, rHuman Notch-1/Fc Chimera, CF (R&D Systems Cat#3647-TK) (human, UniProt P46531 19-526); test: as above
T8 construct: Bought Fc chimera; Fc part of the bought chimera not given

[9] = biological target: T9, rHuman IGF-1 sR (IGF-1 sR), CF (R&D Systems Cat#391-GR) (human, UniProt P08069 31-932); test: as above
T9 construct: Bought soluble receptor; also called insulin-like growth factor-1 soluble receptor; IGF-R1

[10] = biological target: T7, rHuman Erythropoietin R/Fc Chimera, CF …; test: ECL (MSD Multi-Spot) binding, antigen spotted on plate, Fab at 62.5 nM; blank spot 268;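 note: blank spot per well as comparator with Hit at signal to blank ratio of 4 or more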
[11] = biological target: T8, rHuman Notch-1/Fc Chimera, CF (R&D …); test: as above
[12] = biological target: T9, rHuman IGF-1 sR (IGF-1 sR), CF (R&D …); test: as above
[13] = biological target: T7, rHuman Erythropoietin R/Fc Chimera, CF …; test: ECL (MSD Multi-Spot) binding, antigen spotted on plate, Fab at 1000 nM; blank spot 1133;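 note: blank spot per well as comparator with Hit at signal to blank ratio of 4 or more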
[14] = biological target: T8, rHuman Notch-1/Fc Chimera, CF (R&D …); test: as above
[15] = biological target: T9, rHuman IGF-1 sR (IGF-1 sR), CF (R&D …); test: as above
[16] = biological target: T7, rHuman Erythropoietin R/Fc Chimera, CF …; test: ECL (MSD Multi-Spot) binding, antigen spotted on plate, Fab at 250 nM; blank spot 590;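 note: blank spot per well as comparator with Hit at signal to blank ratio of 4 or more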
[17] = biological target: T8, rHuman Notch-1/Fc Chimera, CF (R&D …); test: as above
[18] = biological target: T9, rHuman IGF-1 sR (IGF-1 sR), CF (R&D …); test: as above
[19] = biological target: T7, rHuman Erythropoietin R/Fc Chimera, CF …; test: ECL (MSD Multi-Spot) binding, antigen spotted on plate, Fab at 31.3 nM; blank spot 250;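 note: blank spot per well as comparator with Hit at signal to blank ratio of 4 or more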
[20] = biological target: T8, rHuman Notch-1/Fc Chimera, CF (R&D …); test: as above
[21] = biological target: T9, rHuman IGF-1 sR (IGF-1 sR), CF (R&D …); test: as above
[22] = biological target: T7, rHuman Erythropoietin R/Fc Chimera, CF …; test: ECL (MSD Multi-Spot) binding, antigen spotted on plate, Fab at 15.6 nM; blank spot 294;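 note: blank spot per well as comparator with Hit at signal to blank ratio of 4 or more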
[23] = biological target: T8, rHuman Notch-1/Fc Chimera, CF (R&D …); test: as above
[24] = biological target: T9, rHuman IGF-1 sR (IGF-1 sR), CF (R&D …); test: as above
[25] = biological target: T7, rHuman Erythropoietin R/Fc Chimera, CF …; test: ECL (MSD Multi-Spot) binding, antigen spotted on plate, Fab at 125 nM; blank spot 403;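 note: blank spot per well as comparator with Hit at signal to blank ratio of 4 or more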
[26] = biological target: T8, rHuman Notch-1/Fc Chimera, CF (R&D …); test: as above
[27] = biological target: T9, rHuman IGF-1 sR (IGF-1 sR), CF (R&D …); test: as above
[28] = biological target: T7, rHuman Erythropoietin R/Fc Chimera, CF …; test: ECL (MSD Multi-Spot) binding, antigen spotted on plate, Fab at 7.8 nM; blank spot 316;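 note: blank spot per well as comparator with Hit at signal to blank ratio of 4 or more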
[29] = biological target: T8, rHuman Notch-1/Fc Chimera, CF (R&D …); test: as above
[30] = biological target: T9, rHuman IGF-1 sR (IGF-1 sR), CF (R&D …); test: as above

ECL signal [1]: 2030
ECL signal [2]: 1700
ECL signal [3]: 2480
ECL signal [4]: 2740
ECL signal [5]: 19400
ECL signal [6]: 2030
B1: Fab VH4-28_IGHD7-27*01_IGHJ1*01 & L2_IGKJ1*01 (Fab, V domains shown)
VH: QVQLQESGPGLVKPSDTLSLTCAVSGYSISSSNWWGWIRQPPGKGLEWIGYIYYSGSTYYNPSLKSRVTMSVDTSKNQFSLKLSSVTAVDTAVYYCARTNWGAEYFQHWGQGTLVTVSS
VL: not shown

ECL signal [7]: 10300
ECL signal [8]: 1980
ECL signal [9]: 1330
ECL signal [10]: 7750
ECL signal [11]: 536
ECL signal [12]: 491
ECL signal [13]: 8590
ECL signal [14]: 2270
ECL signal [15]: 1670
ECL signal [16]: 8540
ECL signal [17]: 1240
ECL signal [18]: 993
ECL signal [19]: 7880
ECL signal [20]: 563
ECL signal [21]: 385
ECL signal [22]: 8360
ECL signal [23]: 418
ECL signal [24]: 349
ECL signal [25]: 9240
ECL signal [26]: 802
ECL signal [27]: 654
ECL signal [28]: 6760
ECL signal [29]: 486
ECL signal [30]: 353
B2: Fab VH1-46_IGHD6-13*01_IGHJ4*01 & B3_IGKJ1*01 (Fab, V domains shown)
VH: QVQLVQSGAEVKKPGASVKVSCKASGYTFTSYYMHWVRQAPGQGLEWMGIINPSGGSTSYAQKFQGRVTMTRDTSTSTVYMELSSLRSEDTAVYYCAREGYSSSWYDYFDYWGQGTLVTVSS
VL: not shown
notes: Tested as a Fab made in E. coli: VH joined to the CH1 of Plasmid A (with Flag and His tags), VL joined to the kappa constant region of Plasmid C; also called VH1-46_IGHD6-13*01_IGH41*01 & B3_IGKJ1*01
